From patent KR20230078152A

Biological target: human PSMA (prostate-specific membrane antigen) expressed on LNCaP cells (human) (UniProt Q04609)
Test: flow cytometry on LNCaP cells, isotype control 10μg/mL, 4℃

Sequence of human PSMA (prostate-specific membrane antigen) expressed on LNCaP cells (human) (Q04609 whole entry): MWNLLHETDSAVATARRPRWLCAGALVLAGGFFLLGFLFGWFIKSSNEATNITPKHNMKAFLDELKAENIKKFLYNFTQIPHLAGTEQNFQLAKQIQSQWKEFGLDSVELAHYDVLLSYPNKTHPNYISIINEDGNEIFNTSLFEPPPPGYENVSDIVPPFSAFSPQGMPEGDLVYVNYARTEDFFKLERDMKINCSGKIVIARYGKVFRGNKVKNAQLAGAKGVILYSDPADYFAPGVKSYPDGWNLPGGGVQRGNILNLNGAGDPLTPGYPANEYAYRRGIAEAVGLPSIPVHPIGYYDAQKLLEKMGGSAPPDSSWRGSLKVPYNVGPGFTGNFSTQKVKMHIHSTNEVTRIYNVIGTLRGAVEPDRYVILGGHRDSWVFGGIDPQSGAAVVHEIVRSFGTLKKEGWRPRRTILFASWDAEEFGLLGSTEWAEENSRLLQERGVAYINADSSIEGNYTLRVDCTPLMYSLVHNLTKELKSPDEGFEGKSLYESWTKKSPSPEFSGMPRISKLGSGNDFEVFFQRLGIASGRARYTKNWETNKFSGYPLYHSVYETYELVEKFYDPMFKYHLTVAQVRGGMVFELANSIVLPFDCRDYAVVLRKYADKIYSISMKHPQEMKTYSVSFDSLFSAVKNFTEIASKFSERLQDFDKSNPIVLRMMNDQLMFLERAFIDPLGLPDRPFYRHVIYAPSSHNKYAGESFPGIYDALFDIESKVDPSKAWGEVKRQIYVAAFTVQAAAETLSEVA

Work on “Mouse IgG Isotype Control (ThermoFisher, cat.No.02-6502) (antibody)” yielded a Mean FL of 3440 Mean FL.
